Publication PMC5777823 (eLife, 2017)

Biological target: T1, CENP-L:CENP-N^230-C complex (human, UniProt Q8N0S6 1-344; Q96H22 230-339)
T1 construct: CENP-L, human; CENP-N, human, residues 230 to the C-terminus of the 339-residue protein; Form used in SEC and ITC, named without GST; tag probably cleaved with 3C protease; also called CENP-LN^230-C; CENP-LN^230-C dimer; source: Tnao38 insect cells (baculovirus, co-expressed), purified (GSH-Sepharose, Superdex 200)
Assay: ITC; 25°C, ITC200; 20 mM HEPES pH 7.5, 2.5% glycerol, 300 mM NaCl, 1 mM TCEP; protein in the cell at 5–8 µM, ligand at 50–80 µM; single site binding model
Settings: both partners purified

T1 sequence (Q8N0S6 whole entry, chain 1 of 2, the tested form may be a part): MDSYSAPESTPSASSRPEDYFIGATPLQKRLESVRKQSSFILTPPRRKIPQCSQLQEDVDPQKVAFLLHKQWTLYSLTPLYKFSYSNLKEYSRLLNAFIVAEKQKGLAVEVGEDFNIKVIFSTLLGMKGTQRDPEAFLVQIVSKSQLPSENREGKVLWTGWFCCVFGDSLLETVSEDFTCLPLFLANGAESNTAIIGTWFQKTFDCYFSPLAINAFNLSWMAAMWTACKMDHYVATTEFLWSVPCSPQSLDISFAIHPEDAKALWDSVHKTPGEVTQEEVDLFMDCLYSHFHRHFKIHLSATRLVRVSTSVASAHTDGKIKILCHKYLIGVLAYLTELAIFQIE
T1 sequence (Q96H22 230-339, chain 2 of 2): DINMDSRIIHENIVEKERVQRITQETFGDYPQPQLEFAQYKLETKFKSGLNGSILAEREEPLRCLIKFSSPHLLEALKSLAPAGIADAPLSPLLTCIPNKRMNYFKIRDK

B1: CENP-C^225-364 (domain or fragment, human, UniProt Q03188 225-364, looked up)
chain: SDEEDKTSEGQERKPSGSSQNRIRDSEYEIQRQAKKSFSTLFLETVKRKSESSPIVRHAATAPPHSCPPDDTKLIEDEFIIDESDQSFASRSWITIPRKAGSLKQRTISPAESTALLQGRKSREKHHNILPKTLANDKHS
notes: pGEX-6P-2rbs; named without GST in the assays; source: bacteria, purified as described (Klare et al., 2015)
  Kd: 1 µM
